Measured values published in US20250195556A1, “COMPOSITIONS, KITS, AND METHODS TO INDUCE ACQUIRED CYTORESISTANCE USING STRESS PROTEIN INDUCERS” (FRED HUTCHINSON CANCER RESEARCH CENTER, priority 2014, published 2025).
“And” between values parts separate entries of the source, which are not always exact repeats. Equal entries are not always repeated.

What was measured:
[1] = Plasma LDH 4 hr after IV test agents (marker of liver, kidney, lung and heart injury); type: in vivo, mice; settings: 4 hr IV
HO-1 [2] = test: Renal cortical HO-1 mRNA (RT-PCR) and protein (ELISA) after IV myoglobin, SnPP or both (Example 1); type: in vivo, mice
Text: The Glycerol Model of AKI. This is a widely used model of rhabdomyolysis-induced AKI that has been employed worldwide for 50 years. The model was used to test whether prophylactic interventions confer protection against AKI. Basically, the protocol is as follows: Male CD-1 mice (35-45 grams), obtained from Charles River Laboratories, Wilmington, M A were studied. Mice were maintained under standard vivarium conditions and generally housed for 1-3 weeks prior to study. The mice were placed in a cylindrical restraining cage, and then were given a tail vein injection of the test substances (see below) or test substance vehicle. The mice were then returned to their cages. Eighteen hours (hrs) later, the mice were briefly anesthetized by isoflurane inhalation, and given an intramuscular injection of hypertonic (50%) glycerol in a dose of 9 ml/Kg body weight. The dose is divided in two, with half injected into the muscle of each of the hind limbs. The mice were then returned to their cages. Eighteen hrs later, the mice were deeply anesthetized with pentobarbital (50-100 mg/Kg), the abdominal cavity was opened through a midline abdominal incision, a blood sample was obtained from the abdominal vena cava and the kidneys were resected. A kidney cross section was obtained and fixed in formalin for subsequent histologic analysis. The terminal blood samples were analyzed for BUN and creatinine, using commercially available assay kits. The remaining kidney tissue was subjected to cortical dissection, and the cortical tissues were then extracted for protein and RNA. The protein samples were saved for analysis of HO-1 levels, and the RNA samples were subjected to RT-PCR to quantify HO-1 mRNA as well as levels of other stress gene mRNAs (e.g. NGAL, haptoglobin, hemopexin, hepicidin).
Myoglobin+SnPP: To 5 mg of dry myoglobin was added 0.9 ml of PBS+0.1 ml of a stock SnPP solution (50 umole/ml). The resulting final concentrations were 5 mg/ml myoglobin+5 umoles/ml of SnPP. The tail vein was injected with 200 μl of this solution, which equals 1 mg myoglobin+1 umole SnPP. […]
Four hr post myoglobin vs myoglobin+SnPP vs SnPP alone experiments. To confirm that the myoglobin+SnPP has a synergistic effect in inducing HO-1 mRNA and HO-1 protein levels, each of the above combinations have been administered alone via tail vein injection. Four hrs later, the mice were sacrificed as noted above and the kidneys were harvested for assessment of HO-1 mRNA and protein levels. For additional information regarding methods, see Zager et al., Am J Physiol Renal Physiol. 2014 Jul. 30. Pii.

HK-2 cells = test: Myoglobin toxicity in HK-2 cells, MTT assay; type: cell-based; settings: 10 mg/mL, 18 hr incubation, vs control incubated cells
Method: Example 3. […] HK-2 cells (a proximal tubule cell line derived from normal human kidney) were incubated in keratinocyte serum free medium either under normal (control) conditions or in the presence of 10 mg/mL horse skeletal muscle myoglobin or nitrited myoglobin (produced by equimolar Na nitrite addition to 10 mg/ml myoglobin). After 18 hr incubations, the severity of cell injury (% cell death) was assessed by MTT assay. Myoglobin induced 40% cell death (40% decrease in MTT cell uptake), compared to control incubated cells. Nitrite binding to myoglobin reduced cell death by 75%. Thus, nitrite binding is able to reduce myoglobin's cytotoxic effects.

HO-1 [3] = test: Renal cortical HO-1 mRNA (RT-PCR) and protein (ELISA) after IV myoglobin, SnPP or both (Example 1); type: in vivo, mice; settings: 1 mg myoglobin, 1 μmole SnPP
haptoglobin = test: Haptoglobin protein expression after SQ injection of myoglobin or myoglobin + PEG; type: in vivo, mice; settings: 4 hour time point after SQ injection; control 9.5
Method: Myoglobin+PEG: To a stock solution of 20 mg/ml Mgb in PBS was added 100 mg/ml of PEG-6000; 250 ul. This was administered as a subcutaneous injection in the dorsal neck (250 ul total injection). For combined Mgb/PEG+SnPP, SnPP was added to the above in a concentration of 3 mg/ml.

B1: Myoglobin: Lyophilized horse skeletal muscle (myoglobin) (Sigma Chemicals) used as the test agent (protein, listed as Homo sapiens)
chain: MGLSDGEWQLVLNVWGKVEADIPGHGQEVLIRLFKGHPETLEKFDKFKHLKSEDEMKASEDLKKHGATVLTALGGILKKKGHHEAEIKPLAQSHATKHKIPVKYLEFISECIIQVLQSKHPGDFGADAQGAMNKALELFRKDMASNYKELGFQG
Plasma LDH, Average ([1]; carrier 4.43): 4.47 Absorbance U LDH/ml
Plasma LDH ([1]; individual subjects): 4.54 Absorbance U LDH/ml (2×) and 3.90 Absorbance U LDH/ml and 4.91 Absorbance U LDH/ml
HO-1 protein expression (by ELISA), Average (HO-1 [2]; cortex, 4 hr IV, 1 mg myoglobin, 1 μmole SnPP, PBS 13.5, carrier 21.5): 45.4 ng HO-1/mg protein
HO-1 protein expression (by ELISA) (HO-1 [2]; cortex, 4 hr IV, 1 mg myoglobin, 1 μmole SnPP, individual mice): 40.7 ng HO-1/mg protein and 40.2 ng HO-1/mg protein and 64.7 ng HO-1/mg protein and 36.0 ng HO-1/mg protein
HO-1/GAPDH mRNA, Average (HO-1 [2]; kidney, 4 hr post IV injection, control average 1.93): 3.93
HO-1/GAPDH mRNA (HO-1 [2]; kidney, 4 hr post IV injection, individual mice): 7.78 and 2.93 and 2.58 and 2.41
Cell death (decrease in MTT cell uptake) (HK-2 cells): 40%
HO-1 mRNA induction (HO-1/GAPDH mRNA) (HO-1 [3]; overnight (roughly 18 hrs) post IV, individual subjects): 0.71 and 0.53 and 0.51
HO-1 protein induction (HO-1 [3]; overnight (roughly 18 hrs) post IV, individual subjects, in ng/mg protein): 50.6 and 34.9 and 24.6
HO-1 mRNA induction (HO-1/GAPDH mRNA), Average (HO-1 [3]; overnight post IV, control 0.46): 0.58
HO-1 protein induction, Average (HO-1 [3]; overnight post IV, control 20.5): 36.7
Haptoglobin protein expression (haptoglobin): 32.7 ± 6.3 ng/mg protein
